Assay: soluble on expression in E. coli; label from the status in PepcDB or PDB records

| Sequence | soluble on expression in E. coli |
| --- | --- |
| MIITIPIKNQKDIGTPSDSVVVLGYFDGIHKGHQELFRVANKAARKDLLPIVVMTFNESPKIALEPYHPDLFLHILNPAERERKLKREGVEELYLLDFSSQFASLTAQEFFATYIKAMNAKIIVAGFDYTFGSDKKTAEDLKNYFDGEVIIVPPVEDEKGKISSTRIRQAILDGNVKEAGKLLGAPLPSRGMVVHGNARGRTIGYPTANLVLLDRTYMPADGVYVVDVEIQRQKYRAMASVGKNVTFDGEEARFEVNIFDFNQDIYGETVMVYWLDRIRDMTKFDSVDQLVDQLKADEEVTRNWS | soluble |
| MGSDKIHHHHHHMATNTGHSNPKEALTFMNAPQLDIHQPRIAAFFDLDKTIIATSSALAYGREFMHSGLITPAEALQMSMAKATYMFSGYSSEQMDHTKNQLAHLITGWSEEQVREIANDTLQSVVAPAIYAEARDLIHMHQETGHDVVIISASARILVEAIAAELGVDQVVATELTVVDGKFTGEVPFYCKGAAKAQAILDLTDKRGYQLDRSFAYSDSITDLPMLEAVGNPRAVNPDRALKKVALDRDWEIHTFKNPVALFSKPTKRDLQISTGVAAGVAAVVGSVMWWKSLNGRSDRLRLSCTRDPGTQM | not soluble |
| MGHHHHHHSHMCYNRESNFANQTIDFYCYTEYNGFMTTKGANVMTEVEMKEQVQEVLDKLRPFLLRDGGDCELVDVDEGIVKLRLLGACGSCPSSTITLKAGIERALLEEVPGVVEVEQVF | soluble |
| MTVKAVFFDIDGTLLNDRKNIQKTTQKAIQQLKKQGIMVGLATGRGPGFVQPFLENFGLDFAVTYNGQYILTRDKVLYQNQLPKSMIYKVIRYANEKKREISLGTASGLAGSRIIDMGTSPFGQVISSFVPKSWARTVEGSFKHLIRRIKPQSFRNLVTIMREPIYQVVLVASQAETKKIQEKFPHIKITRSSPYSLDLISVDQSKIKGIERLGEMFGFDLSEVMAFGDSDNDLEMLSGVGIGIAMGNAETVVKDGAHFTTDSNNNDGISKALAHYGLIH | not soluble |
| MSLIQGKAIIIGGGPCGLSAAIHLKQIGIDALVIEKGNVVNSIYNYPTHQTFFSSSEKLEIGDVAFITENRKPVRIQALSYYREVVKRKNIRVNAFEMVRKVTKTQNNTFVIETSKETYTTPYCIIATGYYDHPNYMGVPGEDLPKVFHYFKEGHPYFDKDVVVIGGKNSSVDAALELVKSGARVTVLYRGNEYSPSIKPWILPEFEALVRNGTIRMEFGACVEKITENEVVFRSGEKELITIKNDFVFAMTGYHPDHQFLEKIGVEIDKETGRPFFNEETMETNVEGVFIAGVIAAGNNANEIFIENGRFHGGHIAAEIAKRENHEGHHHHHH | soluble |
| MDNLKDFKNEALVVTNASDGNTPHIVQGIEPDGSLRTKPLAQAKPSETFLHIDRNKSVIGTFFSNMNRQYDRPSDFRFYHLPVEMLSAAKDLVEIFKFPEENGQLLSNYAIDIRQPAQEQSITGDTPQQTTRWGVDEVDWQQLARMGVTPESLGETGMQRLLNGHESAVLDIRISFEGIDFETPACIRLVESAGGKPVLNVECCKRYPELDRPYMGTELSPEVKENLSRSNNAGCVVELELAGGVREPCLLSLNPKTNRLHHVPVSEITIPQEVNRVRLSDDQTTRLARGESVLVENMWSEKKQGYYDARLQYNVCKGGFTYDFRGLNRKQAQSETQMRSRELVIPQVLKGVGLTPEVREKLAAGKTVHIKDMTDNEGNLFSAFVRVNHERAKFDFFKWNPDKSKKQGQSQQAAVRQEGTKPENTVSRNRPVQKTDKKGVSI | not soluble |
| MGSDKIHHHHHHMKRINCFIPYGKIEATRQTVAQLAESSLVSQIYLITDDPHAKAIYPCNLIRTENIWSTKTLREIAGYASAHYTLIYTKTEELQLGMYALERFVAIADDTRSGMVYSDYYEKKEGKLNPHPVIDYQKGSLRDDFNFGSLLLYRSSTLQNAIASMDTEYTFAGLYDLRLKVSQNAPLTHINEYLYTEVENDLRKSGEKMFDYVDPKNRSVQIEMEAACTDHLKMIGGYLPPHFKPVRFDEQTFQTEASVIIPVRNRVRTIEDAIRSVLRQEASFPFNLIIIDNHSTDGTSERIQAIAATDLRIIHIQPERDDLGIGGCWNIGIHHSACGKFAIQLDSDDVYSDEHTLRKIVEAFYEQRCAMVVGTYRMTDFDMRTIPPGIIDHKEWTPENGRNNALRINGLGAPRAFYTPLLRKLNLPNTSYGEDYALGLRISREYPIGRIYDVLYLCRRWEDNSDASLDVVKMNNHNIYKDKIRTWELEARLNMERQ | not soluble |
| YSSAYKEFIKKSMKYRTEEDTFTDANGLAGCRYWSPKNYEKIARMMAQPKYKPAFAYLFFFRSYVNDQQITSCVFQVQRDGMPESILVQPVLRDESSVTLE | not soluble |
| MGSDKIHHHHHHMNKNNQYVLSLACQDAPGIVSEVSTFLFNNGANIVEAEQFNDEDSSKFFMRVSVEIPVAGVNDFNSAFGKVVEKYNAEWWFRPRTDRKKVVIMVSKFDHCLGDLLYRHRLGELDMEVVGIISNHPREALSVSLVGDIPFHYLPVTPATKAAQESQIKNIVTQSQADLIVLARYMQILSDDLSAFLSGRCINIHHSFLPGFKGAKPYHQAHTRGVKLIGATAHFVTADLDEGPIIAQDVEHVSHRDSAEDLVRKGRDIERRVLSRAVLLFLEDRLIVNGERTVVFAD | not soluble |
| MSSEEDKSVEQPQPPPPPPEEPGAPAPSPAAADKRPRGRPRKDGASPFQRARKKPRSRGKTAVEDEDSMDGLETTETETIVETAEIKEQSAEEDAEAEVDNSKQLIPTLQRSVSEESANSLVSVGVEAKISEQLCAFCYCGEKSSLGQGDLKQFRITPGFILPWRNQPSNKKDIDDNSNGTYEKMQNSAPRKQRGQRKERSPQQNIVSCVSVSTQTASDDQAGKLWDELSLVGLPDAIDIQALFDSTGTCWAHHRCVEWSLGVCQMEEPLLVNVDKAVVSGSTERCAFCKHLGATIKCCEEKCTQMYHYPCAAGAGTFQDFSHIFLLCPEHIDQAPERSKEDANCAVCDSPGDLLDQFFCTTCGQHYHGMCLDIAVTPLKRAGWQCPECKVCQNCKQSGEDSKMLVCDTCDKGYHTFCLQPVMKSVPTNGWKCKNCRICIECGTRSSSQWHHNCLICDNCYQQQDNLCPFCGKCYHPELQKDMLHCNMCKR | not soluble |
| TVLENGSWLIDGDTPVNKLKYVLSVDSFPGEEQGYYLTIAGLIMYILQRIPKTGDHMEFNGLRYEVVDMDGIRIDKVMVTKVPEISKD | not soluble |
| MTDPSSSPIRPDMVEAARKFMLTPKVKETPFEEQRQFLLGKGVSEAEILEARASIPPEQLRSQIGTENMIPIGGHPQMMIAPKQNGIVSFAQSAVVLGSISYAGYRFVRSYVLPRFFDIPDPATEEIRQLQSQVDDLQNSIKFIMDSVSQTTQQLATQQSEISRALYSVANRDADLNRVESGISTIKSLLLSQHNFAPIVTPSVTSSIPSWQQSATPTSATSITTTTTSEAASGYATPPANFKESSLADELADIENIE | not soluble |
| MLRRTLHCCTAVRHTSVPSFMQHPVEMAFYFPRFHPDTHVNAAGIPELIDAVGLMTRHSRSSRAESTASASTSAAESAMSRALPPTRWTTTVSATAQPTTDASVVEAQKDNAKSLLLLERGIDILNSVGGVRNPTVANLLRPLYAARFEMLNGSEHLPRSEYAKRMHVHKAILQQAAPLLYYDAWDKSDVHQLDTSCVLVGHFMKAFCALHPRPFHPVAAPATSGGAGSSQASSTTTTASSSSSSNSNSNVTSSSSAQSTPKGAFNPAEWKMAVGDDGEGAYLTLSIVQDRVEELLRLATAAYDKHGSTHPELRWLRPKLLVLKGLLTIPLTGHLLHAQRCIEEAAHYVDALTKRTNLLLDGLKERTHEPELGLYMLLQAEIAARVFDWDVAPGQVDGDVVNMFTDAAGYYADPPNTTLDGDAIMSERKLAEQRFEVEAYACCLRSYAAFLLGASRPEATSTRDSPVFLAKQLFSLNPLLTVATSSSLIFSDVRNVSELPLDMCRRRTGEALDRALKLNRMLYPDFRQNAPAAATLMTMACMYADTRDYLYATGLFESANKAVTYNFGDTSLEHVFLQKLRYEFLAGVGSEQEAKTASHEVVHLLKRIDALPC | soluble |
| MATDRENLLSDDYEETAAFCGCGYFRSFSFTRWRRGDDESRSRGGWSGCLQEERRGNWGSEKLKGLKEISEKIAGPKWKNFIRSFSSGRKKMRRDVDFTYDLKNYSLNFDDGGDGKDSSPERFVAPVVIKV | not soluble |
| MGSDKIHHHHHHMGIHLDFGISPKTFRQTYLYQKPKLFKGAVRNLEAASCKYINEIYQRADPTAPLFHLRKKGAIVPKEEYVESFDDLGKTRYRFIKSVIYEHMKNGASLVYNHINNEPFSDHIARQVARFAGAHTIVSGYLAFGSDESYKNHWDTRDVYAIQLFGKKRWQLTAPDFPMPLYMQQTKDTDISIPEHIDMDIILEAGDVLYIPRGWWHRPIPLGCETFHFAVGTFPPNGYNYLEWLMKKFPTIESLRHSFSDWEQDRTRINDTAAQIAAMIADPVNYEAFSEDFLGKERTDTAFHLEQFANPNATPLSDDVRLRLNANNLDTLEKGYLIGNGMKISVDELGKKVLEHIGKNEPLLLKNLLVNFNQAKHEEVRKLIYQLIELDFLEIL | not soluble |
| SMAGCVVIVGSGVIGRSWAMLFASGGFQVKLYDIEQQQIRNALENIRKEMKLLEQAGSLKGSLSVEEQLSLISGCPNIQEAVEGAMHIQECVPEDLELKKKIFAQLDSIIDDRVILSSSTSCLMPSKLFAGLVHVKQCIVAHPVNPPYYIPLVELVPHPETAPTTVDRTHALMKKIGQCPMRVQKEVAGFVLNRLQYAIISEAWRLVEEGIVSPSDLDLVMSEGLGMRYAFIGPLETMHLNAEGMLSYCDRYSEGIKHVLQTFGPIPEFSRATAEKVNQDMCMKVPDDPEHLAARRQWRDECLMRLAKLKSQV | soluble |
| MATSFPVLCLPNKNIRDVLQNMSTCNLIAFSLCSKATKSHVMHLKNDIQQISIKAFLSIDINILSHNQEVTSLVFFKKDYGRWNFESCESVTATETLTPLEPESDRVWVKRGFKLRDWIDHVMEIFNCSRIHEIYISRIGHEEHYISLSNAVKELKTETIFFSFCSDTVVQSVVANVQSNDISFNLSFNIEPSMQKHKVLTRHFERVSFSKDDTREALTLNDLLITNVSQLNISAHHLSFEELNIFIRHLISGSNRRLKIVGIVCAEATRNMQILLKGISHSVYSAELKIVARNENDYQLGDTIYVYQNCGRRLAMQTYLFEGVEKIVMRVY | not soluble |
| MSLSLPRWKQIVHMLYLKMEFISGGELGEALAVNPRTIRNDIKVINQILMIGGNRIESLPGVGYRLVIGDEKALREALLDDSIGRANMNIVPMFAEDRADYIIRYLLLKNDYVKLETLSEELFVSKSTINLDILEVKRKLKENELKVEKRAGYGIRITGAELAIRFCFSRYLLVESTSPLITETEINFFGEVNLEMMEQIVVSNIAKYNIHMTDISVKNLIIHIAIAVCRVKDNCYVPATDLEDIEFSMPELRAAQGIIKEIDLSEGIRFPESETAYLLLHLSSKNRKSDFNNYREYIIVDKMLEKIKELYGYDFKQDQKMISNIALHLKPAINRIKFNMNIQNPYLKNLKANYPLAFELGLVAKEVLEQELKTNVDEAEVGYLAIHFLYGLDKEEGHHHHHH | soluble |
| MAGRLREMRCELSFLKNADGSACFSQGATCIWASCSGPGDVHASKASDEAMTLDISYRANCGDNKFNVLNNIIHSTLSNAINLELFPHTTISVTVHGIQDDGSMGAVAINGACFALLDNGMPFETVFCGVLIVRVKDELIIDPTAKQEAASTGRVLFSVCKGSDGHPEVCAMDAIGHWDFIQLEAAWSLAQPSASAIFDFYKTVMKRKLSVDEQLEHHHHHH | soluble |
| MAHHHHHHMGLYKSIYFVDGGCCAVKFNAITGLKNRTYGEGANFAIPFLETPVVFDIRNKPTEVLTATGSRDLQTVNLAVRVLYQPHVSALPDIYRNVGMEYAETVLPSLVNEIIRAVIAQFNASDLLVKRPEVSNRIGVMLAERAKRFHIDITDVSITQMSFGKEYTSAVEAKQVAQQMAERAKWRVEQAEQEKEGAILLAKGEAEAAKLIGMAVQKNPAFITLRSLEASRTIADLMRQKGSGSFYIDSDTLSLNTQTIGH | not soluble |

Source: the DeepSol protein solubility set
